Source: patent publication US20210269780A1

Target: G3BP (human) (UniProt Q13283)

| percentage of cells with PABPC1-positive stress granules after sodium arsenite | Substance |
| --- | --- |
| 85 % of cells | mCherry-sspB |
| 46 % of cells | G3BPdi-mCherry-sspB (from UniProt Q13283) |
